We go through one molecule from PMC5823934, “EGF receptor kinase suppresses ciliogenesis through activation of USP8 deubiquitinase” (Nature Communications, 2018).

The experiment addresses T1, GST-USP8 (human, UniProt P40818 1-1118).
T1 construct: USP8 deubiquitinase, human cDNA FLJ76940 from the Human Gene and Protein Database, inserted in frame to GST in pGEX-6P-3 (BamHI/XhoI); Wild type; also called bacterially purified GST-USP8; source: E. coli BL21 (DE3), purified (glutathione-sepharose 4B)
T1 sequence (looked up): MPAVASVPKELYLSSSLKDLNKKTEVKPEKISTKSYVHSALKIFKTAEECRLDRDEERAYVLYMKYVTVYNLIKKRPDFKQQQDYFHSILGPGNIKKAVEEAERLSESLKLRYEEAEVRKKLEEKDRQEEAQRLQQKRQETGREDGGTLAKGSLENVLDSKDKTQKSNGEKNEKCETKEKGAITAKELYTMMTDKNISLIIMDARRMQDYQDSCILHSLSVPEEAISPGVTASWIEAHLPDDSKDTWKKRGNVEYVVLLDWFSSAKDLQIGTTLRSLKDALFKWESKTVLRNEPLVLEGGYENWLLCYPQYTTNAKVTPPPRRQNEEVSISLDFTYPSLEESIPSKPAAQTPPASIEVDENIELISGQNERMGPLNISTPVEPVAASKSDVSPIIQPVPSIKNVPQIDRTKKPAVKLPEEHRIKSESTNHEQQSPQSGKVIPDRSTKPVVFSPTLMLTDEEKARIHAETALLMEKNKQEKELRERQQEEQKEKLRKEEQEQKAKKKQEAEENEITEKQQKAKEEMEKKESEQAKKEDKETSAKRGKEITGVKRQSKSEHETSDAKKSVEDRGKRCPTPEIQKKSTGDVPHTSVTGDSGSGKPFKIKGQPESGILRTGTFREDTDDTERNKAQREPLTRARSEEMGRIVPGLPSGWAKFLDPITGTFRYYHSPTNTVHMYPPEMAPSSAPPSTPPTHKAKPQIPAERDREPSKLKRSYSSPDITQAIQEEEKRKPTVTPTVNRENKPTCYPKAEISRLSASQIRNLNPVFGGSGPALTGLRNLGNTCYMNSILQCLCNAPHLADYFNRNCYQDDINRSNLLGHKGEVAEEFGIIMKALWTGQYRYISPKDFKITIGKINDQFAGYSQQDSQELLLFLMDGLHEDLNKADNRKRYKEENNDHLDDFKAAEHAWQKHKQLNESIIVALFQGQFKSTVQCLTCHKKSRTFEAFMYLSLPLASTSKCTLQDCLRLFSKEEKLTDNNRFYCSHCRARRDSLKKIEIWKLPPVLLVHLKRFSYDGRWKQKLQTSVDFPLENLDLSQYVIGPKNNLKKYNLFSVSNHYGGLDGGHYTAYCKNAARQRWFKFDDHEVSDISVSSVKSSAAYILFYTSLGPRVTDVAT
The experiment in a line: pull-down; MBP-trichoplein (1 ug) and GST-USP8 (1 ug) in cell lysis buffer (20 mM Tris-HCl pH 7.5, 150 mM NaCl, 2 mM beta-glycerophosphate, 2 mM EGTA, 1% Triton X-100), 2 h at 4 °C; glutathione-sepharose 4B; immunoblot. To be noted: both partners purified.

B1: MBP-trichoplein (natural protein, human, UniProt Q9BT92 1-498, looked up)
chain: MALPTLPSYWCSQQRLNQQLARQREQEARLRQQWEQNSRYFRMSDICSSKQAEWSSKTSYQRSMHAYQREKMKEEKRRSLEARREKLRQLMQEEQDLLARELEELRLSMNLQERRIREQHGKLKSAKEEQRKLIAEQLLYEHWKKNNPKLREMELDLHQKHVVNSWEMQKEEKKQQEATAEQENKRYENEYERARREALERMKAEEERRQLEDKLQAEALLQQMEELKLKEVEATKLKKEQENLLKQRWELERLEEERKQMEAFRQKAELGRFLRHQYNAQLSRRTQQIQEELEADRRILQALLEKEDESQRLHLARREQVMADVAWMKQAIEEQLQLERAREAELQMLLREEAKEMWEKREAEWARERSARDRLMSEVLTGRQQQIQEKIEQNRRAQEESLKHREQLIRNLEEVRELARREKEESEKLKSARKQELEAQVAERRLQAWEADQQEEEEEEEARRVEQLSDALLQQEAETMAEQGYRPKPYGHPKIAWN
notes: also called recombinant MBP-trichoplein; source: E. coli BL21 CodonPlus RP, purified (amylose resin)
For B1, the binding result is “binds”.
